According to US20150307600A1:

Target: synthetic biotinylated and pegylated phospho-tau peptide RSGYSSPG(pS)PG(pT)PGSRSR-OH (human)
Experiment: MSD electrochemiluminescence competition on the biotinylated phospho-tau peptide (SEQ ID NO:39) coated on streptavidin plates; competitor: SULFO-TAG-labelled AT8

Substance: AT8 anti-tau antibody (ThermoScientific, Rockford, Ill.)
- IC50 (read off the curve): 40 nM
